Tests used:
miR2-FL-WT-FLAG = biological target: T1, miR2-FL-WT-FLAG (mouse, UniProt Q80WQ6 1-827); test: FACS on MEF-DKO-miR2-FL-WT-FLAG cells
T1 construct: on MEF-DKO cells
T1 sequence: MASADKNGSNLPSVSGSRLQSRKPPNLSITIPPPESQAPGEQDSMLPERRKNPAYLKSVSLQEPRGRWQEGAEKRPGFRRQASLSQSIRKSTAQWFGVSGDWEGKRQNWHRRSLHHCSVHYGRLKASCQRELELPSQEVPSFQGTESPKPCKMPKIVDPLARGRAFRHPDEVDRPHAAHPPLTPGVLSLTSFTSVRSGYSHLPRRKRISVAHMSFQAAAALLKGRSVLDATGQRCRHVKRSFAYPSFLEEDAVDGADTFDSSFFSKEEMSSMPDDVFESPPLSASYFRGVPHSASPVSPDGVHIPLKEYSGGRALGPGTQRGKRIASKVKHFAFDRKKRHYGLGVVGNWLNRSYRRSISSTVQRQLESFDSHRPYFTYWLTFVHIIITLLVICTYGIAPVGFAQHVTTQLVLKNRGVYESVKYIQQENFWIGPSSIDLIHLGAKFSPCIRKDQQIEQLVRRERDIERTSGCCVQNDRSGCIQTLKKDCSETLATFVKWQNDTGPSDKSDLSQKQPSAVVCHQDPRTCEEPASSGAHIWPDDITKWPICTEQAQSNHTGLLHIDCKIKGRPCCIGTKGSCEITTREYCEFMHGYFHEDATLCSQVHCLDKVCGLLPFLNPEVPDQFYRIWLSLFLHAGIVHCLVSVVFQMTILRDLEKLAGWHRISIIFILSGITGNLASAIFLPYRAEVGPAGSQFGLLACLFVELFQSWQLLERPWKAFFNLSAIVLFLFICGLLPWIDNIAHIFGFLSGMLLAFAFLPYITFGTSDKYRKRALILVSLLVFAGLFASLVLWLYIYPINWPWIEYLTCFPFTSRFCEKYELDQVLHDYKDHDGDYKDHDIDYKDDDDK

hiR2-FL-H505R-T7 = biological target: T2, hiR2-FL-H505R-T7 (human, UniProt Q6PJF5 1-856); test: FACS, MEF-DKO cells, 3 µg/ml
T2 sequence: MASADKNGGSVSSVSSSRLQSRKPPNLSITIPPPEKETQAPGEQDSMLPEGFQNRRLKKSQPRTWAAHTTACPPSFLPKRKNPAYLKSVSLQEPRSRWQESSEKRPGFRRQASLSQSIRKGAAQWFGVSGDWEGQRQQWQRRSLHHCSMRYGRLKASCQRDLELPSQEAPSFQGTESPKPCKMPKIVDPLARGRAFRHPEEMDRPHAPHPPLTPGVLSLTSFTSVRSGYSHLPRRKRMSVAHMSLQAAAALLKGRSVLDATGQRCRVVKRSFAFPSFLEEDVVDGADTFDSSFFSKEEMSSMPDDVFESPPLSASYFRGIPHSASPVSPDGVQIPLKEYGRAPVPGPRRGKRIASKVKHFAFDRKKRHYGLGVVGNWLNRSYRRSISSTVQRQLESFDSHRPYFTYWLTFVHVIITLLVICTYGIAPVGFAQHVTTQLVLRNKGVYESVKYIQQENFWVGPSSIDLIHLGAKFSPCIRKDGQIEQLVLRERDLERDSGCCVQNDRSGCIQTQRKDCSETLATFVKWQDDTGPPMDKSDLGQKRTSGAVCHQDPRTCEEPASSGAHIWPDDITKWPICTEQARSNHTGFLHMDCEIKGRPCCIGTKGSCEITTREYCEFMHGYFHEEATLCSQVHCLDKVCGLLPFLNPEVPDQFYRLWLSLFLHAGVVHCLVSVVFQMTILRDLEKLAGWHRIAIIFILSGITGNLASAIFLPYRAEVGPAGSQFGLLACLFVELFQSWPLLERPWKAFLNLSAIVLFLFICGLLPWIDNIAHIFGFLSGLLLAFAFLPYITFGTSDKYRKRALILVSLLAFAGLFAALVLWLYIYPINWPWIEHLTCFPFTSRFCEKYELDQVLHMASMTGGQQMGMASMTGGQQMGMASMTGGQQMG

B1: antibody 3 (antibody, V domains shown)
VH: QVTLKESGPGILQPSQTLSLTCSFSGFSLTTFAMGIGWVRQPSGKGLEWLAHIWWDGEKYNNPVLKSRLTISKDTSKNQVFLRIANVDTPDTATYYCARISSIYYIIDNWGQGTSVTVSS
VL: DIVLTQSPATLSVTPGHSVSLSCRASQSISNNLHWYQKKSHESPRLLIKYVSQSISGIPSRFSGSGSGTDFTLSINSVETEDFGMYFCQQSYNWPLTFGAGTKLELK
notes: mouse IgG, kappa light chain; also called clone #3; purified antibody 3
binding result (miR2-FL-WT-FLAG): no binding (tested: 3 µg/ml)

B2: antibody 50 (antibody, V domains shown)
VH: QVQLQQSGAELVRPGASVKVSCKASGYAFSNYLIEWVKQRPGQGLEWIGVINPGSGFTKYNEKFKGKATLTADKSSSTAYMQLSSLTSEDSAVYFCARGLYRAMDYWGQGTSVTVSS
VL: DIQMTQSPASQSASLGESVTITCLASQTIGTWLAWYQQKPGKSPQLLIYAAASLADGVPSRFSGGGSGTKFSFKISSLQAEDFVNYYCQQIYSTPYTFGGGTKLEIK
notes: mouse IgG, kappa light chain; also called clone #50; purified antibody 50
loss of binding vs wild type (hiR2-FL-H505R-T7): ≥ 95%
